Reference: patent US11649460B2, “DNA aptamers, method for inhibiting human galectin-1 and method of treating a mammal in need thereof” (priority 2020, dated 2023)

What was measured:
[1] = test system: NHF human foreskin skin fibroblasts; assay: SRB cell proliferation (cytotoxicity) assay, NHF; settings: NHF
From the text: (§1) The XLSTAT software was used to determine the IC50, TGI and LC50 values using the four-parameter logistic curve equation.

[2] = test system: OVCAR-3 human ovarian adenocarcinoma cell line; assay: SRB cell proliferation (cytotoxicity) assay, OVCAR-3; settings: OVCAR-3
From the text: as §1

[3] = test system: MCF-7 human breast adenocarcinoma cell line; assay: SRB cell proliferation (cytotoxicity) assay, MCF-7; settings: MCF-7
From the text: as §1

[4] = test system: A-375 human malignant melanoma; assay: SRB cell proliferation (cytotoxicity) assay, A-375; settings: A-375
From the text: as §1

[5] = test system: HT-29 human colorectal adenocarcinoma; assay: SRB cell proliferation (cytotoxicity) assay, HT-29; settings: HT-29
From the text: as §1

[6] = target: T1, native human galectin-1 (hGal1) (Homo sapiens, UniProt P09382); assay: Thermofluor thermal shift assay (TSA), native galectin-1; assay type: binding; settings: 5 μM protein
T1 construct: 42; made in house; host or cells: E. coli strain M-15
Method: In an attempt to screen among the selected aptamers that better interact with hGal1, differential scanning fluorimetry (Termofluor) was used to characterize their binding to its target. Among all the selected aptamers, SEQ ID NO.: 4 seemed to have a more intense effect on hGal1 thermoshift and so was chosen for further analysis. The selected aptamer had its interaction evaluated with native and alkylated galectin-1. […] The respective thermal displacements were evaluated as a function of an increasing concentration of SEQ ID NO.: 4 (FIG. 1).
Thermofluor experiments were performed on an Mx3005 RT-PCR (Agilent Technologies) using the SYPRO® Orange dye (492/610 nm) (Invitrogen) as fluorescent probe. The purified (native and alkylated) protein samples were incubated for 30 min with increasing concentration of the molecules of interest, centrifuged, and submitted to the thermal denaturation assay, totalizing four distinct experiments. In a 96-well plate (Agilent Technologies) 20 μl of the reaction containing 5 μM of each protein in buffer PBS 1× and 5× SYPRO® Orange were heated from 25° C. to 95° C. at a rate of 1° C./min. The experimental result was processed as in the protocol previously described and the melting temperature was obtained using GraphPad Prism software (www.graphpad.com).

[7] = test system: DU-145 human prostate carcinoma cell line; assay: SRB cell proliferation (cytotoxicity) assay, DU-145; settings: DU-145
From the text: as §1

[8] = test system: SK-BR-3 human breast adenocarcinoma; assay: SRB cell proliferation (cytotoxicity) assay, SK-BR-3; settings: SK-BR-3
From the text: as §1

OVCAR-3 cell line = assay: Synergism test with cisplatin, OVCAR-3; settings: cisplatin 3 μM
From the text: For the analysis of cell proliferation, the non-clonogenic method of sulforodamine B (SRB) was used, a protein dye that binds to the basic amino acid residues of cell proteins that were viable at the time of the fixation process. Therefore, the greater the amount of SRB bound per compartment, the less the antiproliferative activity of the item under study.

[9] = test system: HCT 116 human colorectal carcinoma; assay: SRB cell proliferation (cytotoxicity) assay, HCT 116; settings: HCT 116
From the text: as §1

[10] = target: T2, hGal1-induced hemagglutination of red blood cells (Homo sapiens, UniProt P09382); assay: Hemagglutination inhibition assay, native hGal1; assay type: cell-based; settings: native Gal1 5 μM
T2 construct: 42; made in house; host or cells: E. coli strain M-15
Method: Hemagglutination Inhibition Assay
Hemagglutination assay was adopted to assess the capacity of SEQ ID NO.: 4 in inhibiting the lectin cross-linking aggregation of red blood cells (RBC), as previously described. Briefly, using a 96-well microplates appropriate amounts of 5 μM hGal1 were blended with 50 μL of aptamer in an increasing concentrations manner (0-40 μM) in PBS 1× buffer (pH 7.4). Following, 50 μL of 3% purified type B+ RBC in PBS. After 2 h of room temperature incubation, the plate was photographed and the hemagglutination area was estimated by area calculator Sketchandcalc™ and the results were expressed as relative agglutination.

[11] = read-out: IC50: Concentration to inhibit 50% of cell growth
[12] = read-out: LC50: Concentration for 50% cell death

T2 sequence (P09382 2-135): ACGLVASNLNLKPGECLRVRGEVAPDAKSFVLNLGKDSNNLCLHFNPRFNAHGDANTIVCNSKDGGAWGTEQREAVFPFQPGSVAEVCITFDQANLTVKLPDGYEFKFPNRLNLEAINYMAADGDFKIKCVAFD
T1 sequence (P09382 2-135): as above

B1: AGCTGACACAGCAGGTTGGTGCGCCCAATACAGGCGCAGTATCTGTCCGTGGGCCGGGTAAAAGTTACGGACCGAGTCGAGCAATCTCGAAAT (nucleic acid)
DNA: AGCTGACACAGCAGGTTGGTGCGCCCAATACAGGCGCAGTATCTGTCCGTGGGCCGGGTAAAAGTTACGGACCGAGTCGAGCAATCTCGAAAT
modifications: chemistry not given here
- TGI: Concentration for total inhibition of cell growth [1]: 53.452 µM
- IC50 [1, 11]: 33.7 µM
- CC50 [1, 12]: 93.6 µM
- TGI: Concentration for total inhibition of cell growth [2]: 37.711 µM
- IC50 [2, 11]: 11.1 µM
- CC50 [2, 12]: 87.8 µM
- TGI: Concentration for total inhibition of cell growth [3]: 48.434 µM
- IC50 [3, 11]: 17.8 µM
- CC50 [3, 12]: 84.1 µM
- TGI: Concentration for total inhibition of cell growth [4]: 36.326 µM
- IC50 [4, 11]: 26.3 µM
- CC50 [4, 12]: 51.5 µM
- TGI: Concentration for total inhibition of cell growth [5]: 30.010 µM
- IC50 [5, 11]: 14.6 µM
- CC50 [5, 12]: 60.3 µM
- variation of denaturation temperature (Tm) of native hGal1 [6]: greater variation
- TGI: Concentration for total inhibition of cell growth [7]: 42.423 µM
- IC50 [7, 11]: 23.4 µM
- CC50 [7, 12]: 83.5 µM
- TGI: Concentration for total inhibition of cell growth [8]: 37.529 µM
- IC50 [8, 11]: 24.3 µM
- CC50 [8, 12]: 60.2 µM
- effect on the profile of antiproliferative activity in association with cisplatin (OVCAR-3 cell line): enhances
- TGI: Concentration for total inhibition of cell growth [9]: 41.730 µM
- IC50 [9, 11]: 16 µM
- CC50 [9, 12]: 96.3 µM
- inhibitory effect on galectin-induced hemagglutination [10]: better effect
